Reference: the supplement of paper PMC9112550, “Optimization of the antimicrobial peptide Bac7 by deep mutational scanning” (BMC Biology, 2022)

Test system: Escherichia coli TOP10
Assay: shrunken log2 fold change of peptide-encoding DNA abundance (4.5 h post-induction vs induction); higher = less antimicrobial activity (less host growth inhibition)
Conditions: time post-induction: 4.5 h; library: site-saturation at positions 5, 18, 19, 20
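Note: peptides expressed intracellularly from a pBAD plasmid library in pooled LB shake-flask culture, induced with 0.3% L-arabinose, DNA abundance read by NGS, three biological replicates, DESeq2 with apeglm shrinkage.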

## RRIRWRPPRLPRPRPRPDCTPRP
  shrunken log2 fold change: 0.372

## RRIRYRPPRLPRPRPRPIKIPRP
  shrunken log2 fold change: -0.105

## RRIRTRPPRLPRPRPRPITVPRP
  shrunken log2 fold change: -0.154

## RRIRERPPRLPRPRPRPPRVPRP
  shrunken log2 fold change: 0.342

## RRIRYRPPRLPRPRPRPVSDPRP
  shrunken log2 fold change: -0.379

## RRIRWRPPRLPRPRPRPEKGPRP
  shrunken log2 fold change: 0.0282

## RRIRYRPPRLPRPRPRPGKIPRP
  shrunken log2 fold change: -0.524

## RRIRNRPPRLPRPRPRPFQNPRP
  shrunken log2 fold change: -0.0271

## RRIRSRPPRLPRPRPRPNHWPRP
  shrunken log2 fold change: -0.277

## RRIRQRPPRLPRPRPRPNSTPRP
  shrunken log2 fold change: -0.642

## RRIRKRPPRLPRPRPRPRVTPRP
  shrunken log2 fold change: 0.138

## RRIRCRPPRLPRPRPRPNNDPRP
  shrunken log2 fold change: -0.643

## RRIRARPPRLPRPRPRPTLFPRP
  shrunken log2 fold change: 0.663

## RRIRDRPPRLPRPRPRPECGPRP
  shrunken log2 fold change: 1.71

## RRIRTRPPRLPRPRPRPQARPRP
  shrunken log2 fold change: -0.0339

## RRIRMRPPRLPRPRPRPDANPRP
  shrunken log2 fold change: 3.18

## RRIRYRPPRLPRPRPRPLLYPRP
  shrunken log2 fold change: -0.94

## RRIRLRPPRLPRPRPRPEFRPRP
  shrunken log2 fold change: 0.126

## RRIRPRPPRLPRPRPRPMACPRP
  shrunken log2 fold change: -0.161

## RRIRIRPPRLPRPRPRPWQDPRP
  shrunken log2 fold change: -0.0109

## RRIRQRPPRLPRPRPRPHNQPRP
  shrunken log2 fold change: -0.644

## RRIRGRPPRLPRPRPRPSSWPRP
  shrunken log2 fold change: 1.05

## RRIRGRPPRLPRPRPRPDVTPRP
  shrunken log2 fold change: 1.31

## RRIRPRPPRLPRPRPRPEHKPRP
  shrunken log2 fold change: -0.00916

## RRIRCRPPRLPRPRPRPQVCPRP
  shrunken log2 fold change: -0.203

## RRIRPRPPRLPRPRPRPELLPRP
  shrunken log2 fold change: 0.14

## RRIRPRPPRLPRPRPRPMIFPRP
  shrunken log2 fold change: -0.214

## RRIRLRPPRLPRPRPRPSGQPRP
  shrunken log2 fold change: -0.0893

## RRIRGRPPRLPRPRPRPVLYPRP
  shrunken log2 fold change: 0.069

## RRIRPRPPRLPRPRPRPMSQPRP
  shrunken log2 fold change: 0.0517

## RRIRNRPPRLPRPRPRPAQMPRP
  shrunken log2 fold change: 0.177

## RRIRRRPPRLPRPRPRPMHHPRP
  shrunken log2 fold change: 0.0725

## RRIRDRPPRLPRPRPRPPLQPRP
  shrunken log2 fold change: 0.414

## RRIRRRPPRLPRPRPRPCTTPRP
  shrunken log2 fold change: 0.212

## RRIRCRPPRLPRPRPRPWPNPRP
  shrunken log2 fold change: -0.279

## RRIRQRPPRLPRPRPRPMQDPRP
  shrunken log2 fold change: -0.0104

## RRIRGRPPRLPRPRPRPGDDPRP
  shrunken log2 fold change: 0.911

## RRIRDRPPRLPRPRPRPINPPRP
  shrunken log2 fold change: -0.277

## RRIRHRPPRLPRPRPRPALEPRP
  shrunken log2 fold change: -0.069

## RRIRGRPPRLPRPRPRPQEPPRP
  shrunken log2 fold change: 0.134

## RRIRYRPPRLPRPRPRPDNDPRP
  shrunken log2 fold change: -0.17

## RRIRRRPPRLPRPRPRPGERPRP
  shrunken log2 fold change: 0.0829

## RRIRIRPPRLPRPRPRPQYPPRP
  shrunken log2 fold change: -0.32

## RRIRKRPPRLPRPRPRPESWPRP
  shrunken log2 fold change: 1.02

## RRIRHRPPRLPRPRPRPPCVPRP
  shrunken log2 fold change: -0.108

## RRIRVRPPRLPRPRPRPWTLPRP
  shrunken log2 fold change: 0.113

## RRIRYRPPRLPRPRPRPLRVPRP
  shrunken log2 fold change: -0.0922

## RRIRYRPPRLPRPRPRPGDPPRP
  shrunken log2 fold change: -0.223

## RRIRMRPPRLPRPRPRPDEAPRP
  shrunken log2 fold change: 2.2

## RRIRIRPPRLPRPRPRPNMWPRP
  shrunken log2 fold change: -0.59

## RRIRPRPPRLPRPRPRPKKRPRP
  shrunken log2 fold change: 0.136

## RRIRLRPPRLPRPRPRPITRPRP
  shrunken log2 fold change: 0.177

## RRIRRRPPRLPRPRPRPMSMPRP
  shrunken log2 fold change: -0.17

## RRIRWRPPRLPRPRPRPVTAPRP
  shrunken log2 fold change: 0.138

## RRIRYRPPRLPRPRPRPCRMPRP
  shrunken log2 fold change: -0.0503

## RRIRHRPPRLPRPRPRPSRTPRP
  shrunken log2 fold change: 0.138

## RRIRQRPPRLPRPRPRPKMDPRP
  shrunken log2 fold change: -0.111

## RRIRYRPPRLPRPRPRPEGSPRP
  shrunken log2 fold change: -0.0779

## RRIRHRPPRLPRPRPRPMPKPRP
  shrunken log2 fold change: 0.193

## RRIRGRPPRLPRPRPRPEVFPRP
  shrunken log2 fold change: 1.38

## RRIRTRPPRLPRPRPRPHRKPRP
  shrunken log2 fold change: -0.0762

## RRIRRRPPRLPRPRPRPKKDPRP
  shrunken log2 fold change: 0.176

## RRIRPRPPRLPRPRPRPEPKPRP
  shrunken log2 fold change: 2.44

## RRIRFRPPRLPRPRPRPQYSPRP
  shrunken log2 fold change: -0.581

## RRIRQRPPRLPRPRPRPEYVPRP
  shrunken log2 fold change: -0.0886

## RRIRSRPPRLPRPRPRPMTPPRP
  shrunken log2 fold change: 0.13

## RRIRQRPPRLPRPRPRPTLQPRP
  shrunken log2 fold change: 0.276

## RRIRARPPRLPRPRPRPAMDPRP
  shrunken log2 fold change: 0.568

## RRIRKRPPRLPRPRPRPEDSPRP
  shrunken log2 fold change: 1.28

## RRIRLRPPRLPRPRPRPKSEPRP
  shrunken log2 fold change: 0.0422

## RRIRERPPRLPRPRPRPRVHPRP
  shrunken log2 fold change: 0.0407

## RRIRIRPPRLPRPRPRPFDCPRP
  shrunken log2 fold change: -0.0028

## RRIRWRPPRLPRPRPRPDANPRP
  shrunken log2 fold change: 0.0696

## RRIRKRPPRLPRPRPRPKFRPRP
  shrunken log2 fold change: 0.00803

## RRIRERPPRLPRPRPRPEHCPRP
  shrunken log2 fold change: -0.014

## RRIRARPPRLPRPRPRPRTCPRP
  shrunken log2 fold change: 0.181

## RRIRTRPPRLPRPRPRPKKDPRP
  shrunken log2 fold change: -0.147

## RRIRFRPPRLPRPRPRPSYAPRP
  shrunken log2 fold change: -0.116

## RRIRPRPPRLPRPRPRPAPNPRP
  shrunken log2 fold change: 1.16

## RRIRARPPRLPRPRPRPGYHPRP
  shrunken log2 fold change: -0.14

## RRIRMRPPRLPRPRPRPNIWPRP
  shrunken log2 fold change: 0.785

## RRIRRRPPRLPRPRPRPARAPRP
  shrunken log2 fold change: 0.523

## RRIRIRPPRLPRPRPRPCMIPRP
  shrunken log2 fold change: -0.502

## RRIRHRPPRLPRPRPRPDESPRP
  shrunken log2 fold change: 0.0491

## RRIRDRPPRLPRPRPRPPLDPRP
  shrunken log2 fold change: 0.652

## RRIRARPPRLPRPRPRPDCFPRP
  shrunken log2 fold change: 0.715

## RRIRTRPPRLPRPRPRPFIMPRP
  shrunken log2 fold change: -0.339

## RRIRHRPPRLPRPRPRPCLFPRP
  shrunken log2 fold change: -0.229

## RRIRPRPPRLPRPRPRPGCIPRP
  shrunken log2 fold change: -0.0111

## RRIRSRPPRLPRPRPRPAHKPRP
  shrunken log2 fold change: -0.152

## RRIRERPPRLPRPRPRPLTHPRP
  shrunken log2 fold change: -0.413

## RRIRRRPPRLPRPRPRPQVWPRP
  shrunken log2 fold change: 0.409

## RRIRHRPPRLPRPRPRPYLWPRP
  shrunken log2 fold change: 0.0116

## RRIRPRPPRLPRPRPRPPHVPRP
  shrunken log2 fold change: 0.782

## RRIRRRPPRLPRPRPRPLHRPRP
  shrunken log2 fold change: 0.202

## RRIRHRPPRLPRPRPRPWRSPRP
  shrunken log2 fold change: -0.0818

## RRIRCRPPRLPRPRPRPAIIPRP
  shrunken log2 fold change: -0.786

## RRIRGRPPRLPRPRPRPSDWPRP
  shrunken log2 fold change: 0.251

## RRIRFRPPRLPRPRPRPKRNPRP
  shrunken log2 fold change: 0.203

## RRIRCRPPRLPRPRPRPKDEPRP
  shrunken log2 fold change: 0.393

## RRIRARPPRLPRPRPRPSHVPRP
  shrunken log2 fold change: -0.306

## RRIRPRPPRLPRPRPRPTQEPRP
  shrunken log2 fold change: 0.617

## RRIRPRPPRLPRPRPRPWGMPRP
  shrunken log2 fold change: -0.128

## RRIRWRPPRLPRPRPRPMASPRP
  shrunken log2 fold change: 0.659

## RRIRHRPPRLPRPRPRPQHAPRP
  shrunken log2 fold change: 0.0729

## RRIRGRPPRLPRPRPRPKANPRP
  shrunken log2 fold change: 0.836

## RRIRQRPPRLPRPRPRPMEVPRP
  shrunken log2 fold change: -0.0855

## RRIRPRPPRLPRPRPRPNGIPRP
  shrunken log2 fold change: -0.153

## RRIRCRPPRLPRPRPRPQSYPRP
  shrunken log2 fold change: -0.308

## RRIRLRPPRLPRPRPRPPDDPRP
  shrunken log2 fold change: 0.397

## RRIRERPPRLPRPRPRPVSNPRP
  shrunken log2 fold change: -1.12

## RRIRFRPPRLPRPRPRPTCHPRP
  shrunken log2 fold change: -0.231

## RRIRYRPPRLPRPRPRPPIQPRP
  shrunken log2 fold change: -0.589

## RRIRLRPPRLPRPRPRPEVIPRP
  shrunken log2 fold change: 0.178

## RRIRRRPPRLPRPRPRPCSHPRP
  shrunken log2 fold change: -0.18

## RRIRDRPPRLPRPRPRPQTGPRP
  shrunken log2 fold change: -0.283

## RRIRGRPPRLPRPRPRPYPHPRP
  shrunken log2 fold change: 0.103

## RRIRWRPPRLPRPRPRPMQVPRP
  shrunken log2 fold change: -0.0191

## RRIRDRPPRLPRPRPRPPKMPRP
  shrunken log2 fold change: 0.166

## RRIRNRPPRLPRPRPRPDRSPRP
  shrunken log2 fold change: -0.043

## RRIRGRPPRLPRPRPRPITWPRP
  shrunken log2 fold change: -0.0883

## RRIRHRPPRLPRPRPRPKDCPRP
  shrunken log2 fold change: 0.00375

## RRIRWRPPRLPRPRPRPERFPRP
  shrunken log2 fold change: -0.0212

## RRIRPRPPRLPRPRPRPWHPPRP
  shrunken log2 fold change: -0.227

## RRIRQRPPRLPRPRPRPTFHPRP
  shrunken log2 fold change: 0.199

## RRIRMRPPRLPRPRPRPVTTPRP
  shrunken log2 fold change: 0.107

## RRIRVRPPRLPRPRPRPRYLPRP
  shrunken log2 fold change: -0.184

## RRIRVRPPRLPRPRPRPNATPRP
  shrunken log2 fold change: 0.172

## RRIRHRPPRLPRPRPRPDTYPRP
  shrunken log2 fold change: -0.24

## RRIRTRPPRLPRPRPRPKMRPRP
  shrunken log2 fold change: 0.0419

## RRIRERPPRLPRPRPRPEWDPRP
  shrunken log2 fold change: -0.105

## RRIRQRPPRLPRPRPRPWFAPRP
  shrunken log2 fold change: -0.16

## RRIRKRPPRLPRPRPRPCVCPRP
  shrunken log2 fold change: 0.0462

## RRIRTRPPRLPRPRPRPTWHPRP
  shrunken log2 fold change: 0.153

## RRIRIRPPRLPRPRPRPQDSPRP
  shrunken log2 fold change: -0.269

## RRIRDRPPRLPRPRPRPADQPRP
  shrunken log2 fold change: 0.553

## RRIRFRPPRLPRPRPRPDWEPRP
  shrunken log2 fold change: -0.169

## RRIRTRPPRLPRPRPRPITMPRP
  shrunken log2 fold change: -0.595

## RRIRKRPPRLPRPRPRPIQWPRP
  shrunken log2 fold change: -0.00149

## RRIRIRPPRLPRPRPRPVRKPRP
  shrunken log2 fold change: -0.48

## RRIRMRPPRLPRPRPRPFPGPRP
  shrunken log2 fold change: -0.0808

## RRIRDRPPRLPRPRPRPNAKPRP
  shrunken log2 fold change: 0.128

## RRIRFRPPRLPRPRPRPSGCPRP
  shrunken log2 fold change: -0.0116

## RRIRHRPPRLPRPRPRPLRGPRP
  shrunken log2 fold change: 1.02

## RRIRYRPPRLPRPRPRPPPQPRP
  shrunken log2 fold change: 0.776

## RRIRCRPPRLPRPRPRPMRVPRP
  shrunken log2 fold change: 0.839

## RRIRYRPPRLPRPRPRPFRGPRP
  shrunken log2 fold change: -0.303

## RRIRIRPPRLPRPRPRPNRRPRP
  shrunken log2 fold change: 0.041

## RRIRVRPPRLPRPRPRPMMNPRP
  shrunken log2 fold change: -0.28

## RRIRCRPPRLPRPRPRPFYRPRP
  shrunken log2 fold change: -0.313
